Source: publication doi:10.1101/638320, “Analyzing the weak dimerization of a cellulose binding module by sedimentation velocity experiments” (bioRxiv, 2019)

Legend:
[1] = biological target: the molecule itself; experiment: AUC; loading concentration 0.50 mg/mL (27.07 uM)
[2] = biological target: the molecule itself; experiment: AUC; loading concentration 0.70 mg/mL (37.90 uM)
[3] = biological target: the molecule itself; experiment: AUC; sedimentation velocity, absorbance at 280 nm, 50 000 rpm, 20 °C, PBS (137 mM NaCl, 2.7 mM KCl, 10 mM Na2HPO4, 1.8 mM KH2PO4, pH 7.35), 0.05 to 0.7 g/L; UltraScan III (2DSA, GA, GAMC, van Holde-Weischet; KD by discrete model genetic algorithm); dimer to monomers

B1: CBM_(CipA), cellulose binding module of the cellulosome anchoring protein CipA (domain or fragment, Clostridium thermocellum)
chain: MGNLKVEFYNSNPSDTTNSINPQFKVTNTGSSAIDLSKLTLRYYYTVDGQKDQTFWCDHAAIIGSNGSYNGITSNVKGTFVKMSSSTNNADTYLEISFTGGTLEPGAHVQIQGRFAKNDWSNYTQSNDYSFKSASQFVEWDQVTAYLNGVLVWGKEPLE
notes: abstract: Clostridium thermocellum, introduction: Cellulomonas fimi; differs from PDB 1NBC by the polyHis tag and two amino acids at the beginning and the end; Calculated monomer mass 18469 Da; Gene codon optimised for E. coli, in a modified pET28a(+); also called CMB_(CipA); source: E. coli BL21 (DE3), purified (heating to 70 °C, IMAC on HisTrap, desalting); not shown: His6, C-terminal, kept
- Kd [1]: 93.9 µM
- Kd [2]: 80.5 µM
- Kd [3]: ~87 µM
- stoichiometry N [3]: 2
